The record followed here is patent US20200181263A1 (NUMAB THERAPEUTICS, published 2020).

The chains are these.
T1: human IL-23 receptor ECD (human, UniProt Q5VWK5 24-355)
T1 construct: extracellular domain
T1 sequence (looked up): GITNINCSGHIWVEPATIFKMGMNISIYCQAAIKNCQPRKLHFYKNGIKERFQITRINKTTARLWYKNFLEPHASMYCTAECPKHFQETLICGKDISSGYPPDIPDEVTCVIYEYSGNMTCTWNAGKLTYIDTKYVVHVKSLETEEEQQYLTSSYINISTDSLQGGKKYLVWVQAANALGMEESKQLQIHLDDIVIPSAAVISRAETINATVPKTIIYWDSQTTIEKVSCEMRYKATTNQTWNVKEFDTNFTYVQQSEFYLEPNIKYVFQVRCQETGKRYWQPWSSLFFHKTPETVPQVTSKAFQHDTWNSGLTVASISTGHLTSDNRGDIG

T2: cyno CD3 (cyno, UniProt Q95LI5 22-117)
T2 sequence (looked up): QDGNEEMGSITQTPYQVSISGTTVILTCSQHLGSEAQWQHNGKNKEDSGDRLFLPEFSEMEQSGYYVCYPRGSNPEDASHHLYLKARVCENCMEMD

B1: PRO736 (other)
chain 1: DIQMTQSPSSLSASVGDRVTITCQASENIYSFLAWYQQKPGKAPKLLIYSASKLAAGVPSRFSGSGSGTDFTLTISSLQPEDFATYYCQQTNRYSNPDIYNVFGTGTKVTVLGGGGGSGGGGSGGGGSGGGGSEVQLVESGGGLVQPGGSLRLSCAASGIDFNSNYYMCWVRQAPGKGLEWIGCIYVGSHVNTYYANWAKGRFTISRDNSKNTVYLQMNSLRAEDTAVYYCATSGSSVLYFKFWGQGTLVTVSSGGGGSGGGGSDIQMTQSPSSLSASVGDRVTITCQSSQSVFSNNYLAWFQQKPGQSPKRLIYSASTLASGVPSRFSGSGSGTDFTLTISSLQPEDFATYYCLGSYACSSADCYVFGCGTKVTVLGGGGGSGGGGSGGGGSDIQMTQSPSSLSASVGDRVTITCQSSESVYSNNQLSWYQQKPGQPPKLLIYDASDLASGVPSRFSGSGSGTDFTLTISSLQPEDFATYYCAGGFSSSSDTAFGGGTKLTVLG
chain 2: DIQMTQSPSSLSASVGDRVTITCQASENIYSFLAWYQQKPGKAPKLLIYSASKLAAGVPSRFSGSGSGTDFTLTISSLQPEDFATYYCQQTNRYSNPDIYNVFGTGTKVTVLGGGGGSGGGGSGGGGSGGGGSEVQLVESGGGLVQPGGSLRLSCAASGIDFNSNYYMCWVRQAPGKGLEWIGCIYVGSHVNTYYANWAKGRFTISRDNSKNTVYLQMNSLRAEDTAVYYCATSGSSVLYFKFWGQGTLVTVSSGGGGSGGGGSEVQLVESGGGLVQPGGSLRLSCAASGFSLSSYDMSWVRQAPGKCLAWIGASYASGPTYYASWAKGRFTISRDNSKNTVYLQMNSLRAEDTATYFCARGGWTGTSHSNIWGQGTLVTVSSGGGGSGGGGSGGGGSEVQLVESGGGLVQPGGSLRLSCAASGFSLSSNAMGWVRQAPGKGLEYIGIISVGGFTYYASWAKGRFTISRDNSKNTVYLQMNSLRAEDTATYFCARDRHGGDSSGAFYLWGQGTLVTVSS
notes: Hetero-dimeric MATCH, parallel; diS in anti-CD3 domain, 15 aa GS-linker
B2: PRO737 (other)
chain 1: DIQMTQSPSSLSASVGDRVTITCQASENIYSFLAWYQQKPGKAPKLLIYSASKLAAGVPSRFSGSGSGTDFTLTISSLQPEDFATYYCQQTNRYSNPDIYNVFGTGTKVTVLGGGGGSGGGGSGGGGSGGGGSEVQLVESGGGLVQPGGSLRLSCAASGIDFNSNYYMCWVRQAPGKGLEWIGCIYVGSHVNTYYANWAKGRFTISRDNSKNTVYLQMNSLRAEDTAVYYCATSGSSVLYFKFWGQGTLVTVSSGGGGSGGGGSDIQMTQSPSSLSASVGDRVTITCQSSESVYNNKRLSWYQQKPGKAPKLLIYTASSLASGVPSRFSGSGSGTDFTLTISSLQPEDFATYYCQGEFTCSNADCFTFGCGTKVTVLGGGGGSGGGGSGGGGSDIQMTQSPSSLSASVGDRVTITCQSSESVYSNNQLSWYQQKPGQPPKLLIYDASDLASGVPSRFSGSGSGTDFTLTISSLQPEDFATYYCAGGFSSSSDTAFGGGTKLTVLG
chain 2: DIQMTQSPSSLSASVGDRVTITCQASENIYSFLAWYQQKPGKAPKLLIYSASKLAAGVPSRFSGSGSGTDFTLTISSLQPEDFATYYCQQTNRYSNPDIYNVFGTGTKVTVLGGGGGSGGGGSGGGGSGGGGSEVQLVESGGGLVQPGGSLRLSCAASGIDFNSNYYMCWVRQAPGKGLEWIGCIYVGSHVNTYYANWAKGRFTISRDNSKNTVYLQMNSLRAEDTAVYYCATSGSSVLYFKFWGQGTLVTVSSGGGGSGGGGSEVQLVESGGGLVQPGGSLRLSCAASGFPLSSYAMIWVRQAPGKCLEWIGMILRAGNIYYASWVKGRFTISRDNSKNTVYLQMNSLRAEDTAVYYCARRHYNREGYPIGIGDLWGQGTLVTVSSGGGGSGGGGSGGGGSEVQLVESGGGLVQPGGSLRLSCAASGFSLSSNAMGWVRQAPGKGLEYIGIISVGGFTYYASWAKGRFTISRDNSKNTVYLQMNSLRAEDTATYFCARDRHGGDSSGAFYLWGQGTLVTVSS
notes: Hetero-dimeric MATCH, parallel; diS in anti-CD3 domain, 15 aa GS-linker, alternative anti-CD3
B3: PRO747 (other)
chain 1: DIQMTQSPSSLSASVGDRVTITCQASENIYSFLAWYQQKPGKAPKLLIYSASKLAAGVPSRFSGSGSGTDFTLTISSLQPEDFATYYCQQTNRYSNPDIYNVFGTGTKVTVLGGGGGSGGGGSGGGGSGGGGSEVQLVESGGGLVQPGGSLRLSCAASGIDFNSNYYMCWVRQAPGKGLEWIGCIYVGSHVNTYYANWAKGRFTISRDNSKNTVYLQMNSLRAEDTAVYYCATSGSSVLYFKFWGQGTLVTVSSGGGGSGGGGSDIQMTQSPSSLSASVGDRVTITCQSSQSVFSNNYLAWFQQKPGQSPKRLIYSASTLASGVPSRFSGSGSGTDFTLTISSLQPEDFATYYCLGSYACSSADCYVFGCGTKVTVLGAEAAAKEAAAKADIQMTQSPSSLSASVGDRVTITCQSSESVYSNNQLSWYQQKPGQPPKLLIYDASDLASGVPSRFSGSGSGTDFTLTISSLQPEDFATYYCAGGFSSSSDTAFGGGTKLTVLG
chain 2: DIQMTQSPSSLSASVGDRVTITCQASENIYSFLAWYQQKPGKAPKLLIYSASKLAAGVPSRFSGSGSGTDFTLTISSLQPEDFATYYCQQTNRYSNPDIYNVFGTGTKVTVLGGGGGSGGGGSGGGGSGGGGSEVQLVESGGGLVQPGGSLRLSCAASGIDFNSNYYMCWVRQAPGKGLEWIGCIYVGSHVNTYYANWAKGRFTISRDNSKNTVYLQMNSLRAEDTAVYYCATSGSSVLYFKFWGQGTLVTVSSGGGGSGGGGSEVQLVESGGGLVQPGGSLRLSCAASGFSLSSNAMGWVRQAPGKGLEYIGIISVGGFTYYASWAKGRFTISRDNSKNTVYLQMNSLRAEDTATYFCARDRHGGDSSGAFYLWGQGTLVTVSSAEAAAKEAAAKAEVQLVESGGGLVQPGGSLRLSCAASGFSLSSYDMSWVRQAPGKCLAWIGASYASGPTYYASWAKGRFTISRDNSKNTVYLQMNSLRAEDTATYFCARGGWTGTSHSNIWGQGTLVTVSS
notes: Hetero-dimeric MATCH, anti-parallel; diS in anti-CD3 domain, helical linker
B4: PRO741 (other)
chain 1: DIQMTQSPSSLSASVGDRVTITCQASENIYSFLAWYQQKPGKAPKLLIYSASKLAAGVPSRFSGSGSGTDFTLTISSLQPEDFATYYCQQTNRYSNPDIYNVFGTGTKVTVLGGGGGSGGGGSGGGGSGGGGSEVQLVESGGGLVQPGGSLRLSCAASGIDFNSNYYMCWVRQAPGKGLEWIGCIYVGSHVNTYYANWAKGRFTISRDNSKNTVYLQMNSLRAEDTAVYYCATSGSSVLYFKFWGQGTLVTVSSGGGGSGGGGSDIQMTQSPSSLSASVGDRVTITCQSSQSVFSNNYLAWFQQKPGQSPKRLIYSASTLASGVPSRFSGSGSGTDFTLTISSLQPEDFATYYCLGSYACSSADCYVFGCGTKVTVLGSGGGGSGGGGSDVVMTQSPSSLSASVGDRVTITCQASQIISSRSAWYQQKPGQPPKLLIYQASKLASGVPSRFSGSGSGTDFTLTISSLQPEDFATYYCQCTYIDSNFGAFGGGTKLTVLG
chain 2: DIQMTQSPSSLSASVGDRVTITCQASENIYSFLAWYQQKPGKAPKLLIYSASKLAAGVPSRFSGSGSGTDFTLTISSLQPEDFATYYCQQTNRYSNPDIYNVFGTGTKVTVLGGGGGSGGGGSGGGGSGGGGSEVQLVESGGGLVQPGGSLRLSCAASGIDFNSNYYMCWVRQAPGKGLEWIGCIYVGSHVNTYYANWAKGRFTISRDNSKNTVYLQMNSLRAEDTAVYYCATSGSSVLYFKFWGQGTLVTVSSGGGGSGGGGSEVQLVESGGGLVQPGGSLRLSCAASGFSFSSSYWICWVRQAPGKGLEWVGCVFTGDGTTYYASWAKGRFTISRDNSKNTVYLQMNSLRAEDTATYFCARPVSVYYYGMDLWGQGTLVTVSSSGGGGSGGGGSEVQLVESGGGLVQPGGSLRLSCAASGFSLSSYDMSWVRQAPGKCLAWIGASYASGPTYYASWAKGRFTISRDNSKNTVYLQMNSLRAEDTATYFCARGGWTGTSHSNIWGQGTLVTVSS
notes: Hetero-dimeric MATCH, anti-parallel; diS in anti-CD3 domain, 11 aa GS-linker, alternative anti-HSA

For the first assay, the target named is T3, human serum albumin (human, UniProt P02768 25-609).
T3 construct: also called HSA
Description: SPR, target immobilised by amine coupling, binder as analyte. (In general: In SPR one partner is held on a chip, and binding of the other changes the refractive index at the surface.)
In the case of B1, the Kd was found to be 0.635 nM.
With B2, binding was characterised by a dissociation constant (Kd) of 0.493 nM.
The molecule B3 came in with a Kd of 0.325 nM.
The same measure, in the same setting: next, B4: 0.338 nM.

The target in another assay is T1, human IL-23 receptor ECD. Described as above.
B1 returned a Kd of 0.0482 nM.
For B2, the Kd is 0.0334 nM.
The same measure, in the same setting: for B3 the value was 0.0383 nM; for B4, 0.0378 nM.

A further assay has as its target T2, cyno CD3. The assay is described as above.
B1 yielded a Kd of 8.37 nM.
In turn, B2 registered a Kd of 56.7 nM.
Molecule B3 came in with a dissociation constant Kd of 6.64 nM.
In the case of B4, the equilibrium dissociation constant (Kd) turned out to be 1.08 nM.

The target of the next assay is T4, human CD3 gamma-epsilon single-chain (human, UniProt P09693 23-103; P07766 23-118).
T4 construct: Recombinant protein immobilised on the SPR chip
The assay is described as above.
B1 yielded a Kd of 11.1 nM.
Take B2: binding was characterised by a dissociation constant (Kd) of 24 nM.
Take B3: the affinity, expressed as Kd, was 8.3 nM.
In turn, B4 returned a Kd of 7.58 nM.

The target in another assay is human IL23R IL12Rbeta 1 heterodimer on CHO-K1 cells (human, UniProt Q5VWK5 24-629; P42701 24-662). Description: cell-based or functional assay.
In the case of B3, the “NFAT assay EC50 (T-cell activation, 5 h)” value was 1.45 nM.

As usually defined, the Kd is a measure of binding affinity in units of concentration.
